The values below come from US20190241669A1 (published 2019).

The target in assay [1] is T1, cynomolgus monkey BCMA (cynomolgus monkey, UniProt A0A2K5UD97 1-53).
T1 construct: Soluble analyte in SPR; construct not described; also called cyBCMA; Cyno BCMA
The experiment in a line: SPR, IgG on chip, cyBCMA analyte.

In assay [2] the target is Human BCMA (human) (UniProt Q02223). The experiment in a line: SPR, IgG on chip, huBCMA analyte.

T1 sequence (A0A2K5UD97 entry or part of it): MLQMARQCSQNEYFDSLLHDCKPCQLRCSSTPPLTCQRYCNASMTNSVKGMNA

B1: COMBO_Rd4_0.6nM_C21 (antibody, V domains shown)
VH: EVQLLESGGGLVQPGGSLRLSCAASGFTFSSYPMSWVRQAPGKGLEWVSAIGGSGGSLPYADSVKGRFTISRDNSKNTLYLQMNSLRAEDTAVYYCARYWPMDSWGQGTLVTVSS
VL: EIVLTQSPGTLSLSPGERATLSCRASQSVSSSYLAWYQQKPGQAPRLLMYDASIRATGIPDRFSGSGSGTDFTLTISRLEPEDFAVYYCQQYQSWPLTFGQGTKVEIK
notes: IgG
Turning to B1, in assay [1], the Kd was determined as 0.084 nM, the off-rate constant (koff) turned out to be 0.000304 s⁻¹ and the on-rate (kon) was found to be 3.63e+06 M⁻¹ s⁻¹. In addition, in assay [2], the dissociation constant (Kd) is 0.009 nM, the dissociation rate constant (koff) amounted to 0.000115 s⁻¹ and the kon amounted to 1.34e+07 M⁻¹ s⁻¹.

B2: A02_Rd4_0.6nM_C03 (antibody, V domains shown)
VH: EVQLLESGGGLVQPGGSLRLSCAASGFTFSSYAMNWVRQAPGKGLEWVSAISDSGGSKWYADSVKGRFTISRDNSKNTLYLQMNSLRAEDTAVYYCARYWPMSLWGQGTLVTVSS
VL: EIVLTQSPGTLSLSPGERATLSCRASQSVSSSYLAWYQQKPGQAPRLLMYDASIRATGIPDRFSGSGSGTDFTLTISRLEPEDFAVYYCQQYFTWPLTFGQGTKVEIK
notes: IgG
With B2, in assay [1], the dissociation constant Kd was 0.201 nM, the off-rate (koff) worked out at 0.000426 s⁻¹ and the kon is 2.12e+06 M⁻¹ s⁻¹. Further, in assay [2], the dissociation constant (Kd) worked out at 0.043 nM, the koff is 0.000182 s⁻¹ and the kon was 4.27e+06 M⁻¹ s⁻¹.

B3: A02_Rd4_0.6nM_C13 (antibody, V domains shown)
VH: EVQLLESGGGLVQPGGSLRLSCAASGFTFSSYAMNWVRQAPGKGLEWVSAISDSGGYRYYADSVKGRFTISRDNSKNTLYLQMNSLRAEDTAVYYCARYWPMSLWGQGTLVTVSS
VL: EIVLTQSPGTLSLSPGERATLSCRASQSVSSSYWAWYQQKPGQAPRLLMYDASIRATGIPDRFSGSGSGTDFTLTISRLEPEDFAVYYCQQYESWPLTFGQGTKVEIK
notes: IgG
B3: in assay [1], the dissociation constant Kd turned out to be 0.56 nM, the koff came to 0.00128 s⁻¹ and the kon stood at 2.29e+06 M⁻¹ s⁻¹. For the same molecule, in assay [2], the Kd stood at 0.066 nM, the koff worked out at 0.000566 s⁻¹ and the kon came out at 8.53e+06 M⁻¹ s⁻¹.

B4: A02_Rd4_0.6nM_C09 (antibody, V domains shown)
VH: EVQLLESGGGLVQPGGSLRLSCAASGFTFSSYAMNWVRQAPGKGLEWVSAISDSGGSMWYADSVKGRFTISRDNSKNTLYLQMNSLRAEDTAVYYCARYWPMSLWGQGTLVTVSS
VL: EIVLTQSPGTLSLSPGERATLSCRASQSVSSSYLAWYQQKPGQAPRLLMYDASIRATGIPDRFSGSGSGTDFTLTISRLEPEDFAVYYCQQYQSWPLTFGQGTKVEIK
notes: IgG
For B4, in assay [1], the Kd turned out to be 0.082 nM, the koff was determined as 0.000174 s⁻¹ and the on-rate constant (kon) worked out at 2.13e+06 M⁻¹ s⁻¹. Further, in assay [2], the Kd stood at 0.018 nM, the dissociation rate constant (koff) stood at 9.75e-05 s⁻¹ and the on-rate (kon) is 5.5e+06 M⁻¹ s⁻¹.

B5: A02_Rd4_6nM_C07 (antibody, V domains shown)
VH: EVQLLESGGGLVQPGGSLRLSCAASGFTFSSYAMNWVRQAPGKGLEWVSAIGGSGGSLPYADSVKGRFTISRDNSKNTLYLQMNSLRAEDTAVYYCARYWPMDSWGQGTLVTVSS
VL: EIVLTQSPGTLSLSPGERATLSCRASQSVSPYYLAWYQQKPGQAPRLLMYDASIRATGIPDRFSGSGSGTDFTLTISRLEPEDFAVYYCQQYERWPLTFGQGTKVEIK
notes: IgG
Regarding B5, in assay [1], the Kd stood at 1.14 nM, the off-rate (koff) is 0.000786 s⁻¹ and the kon is 691000 M⁻¹ s⁻¹. In assay [2], this molecule gave a dissociation constant (Kd) of 0.128 nM, a koff of 0.000189 s⁻¹ and a kon of 1.48e+06 M⁻¹ s⁻¹.

B6: A02_Rd4_0.6nM_C26 (antibody, V domains shown)
VH: EVQLLESGGGLVQPGGSLRLSCAASGFTFSSYAMNWVRQAPGKGLEWVSAILMSGGSTYYADSVKGRFTISRDNSKNTLYLQMNSLRAEDTAVYYCARYWPMSLWGQGTLVTVSS
VL: EIVLTQSPGTLSLSPGERATLSCGPSQSVSSSYLAWYQQKPGQAPRLLMYDASIRATGIPDRFSGSGSGTDFTLTISRLEPEDFAVYYCQQYQSWPLTFGQGTKVEIK
notes: IgG
In assay [1], B6 registered a Kd of 0.941 nM, an off-rate constant (koff) of 0.00256 s⁻¹ and a kon of 2.71e+06 M⁻¹ s⁻¹. In assay [2], the Kd was 0.061 nM, the koff is 0.000443 s⁻¹ and the kon was determined as 7.26e+06 M⁻¹ s⁻¹.

B7: A02_Rd4_0.6nM_C01 (antibody, V domains shown)
VH: EVQLLESGGGLVQPGGSLRLSCAASGFTFSSYAMNWVRQAPGKGLEWVSAILSSGGSTYYADSVKGRFTISRDNSKNTLYLQMNSLRAEDTAVYYCARYWPMDIWGQGTLVTVSS
VL: EIVLTQSPGTLSLSPGERATLSCRGGQSVSSSYLAWYQQKPGQAPRLLMYDASIRATGIPDRFSGSGSGTDFTLTISRLEPEDFAVYYCQQYQSWPLTFGQGTKVEIK
notes: IgG; also called P5AC1
For the molecule B7, in assay [1], binding was put at a Kd of 0.655 nM, the koff amounted to 0.00157 s⁻¹ and the association rate constant (kon) is 2.39e+06 M⁻¹ s⁻¹. Also, in assay [2], the Kd was 0.193 nM, the dissociation rate constant (koff) came out at 0.000915 s⁻¹ and the kon amounted to 4.74e+06 M⁻¹ s⁻¹.

B8: A02_Rd4_6nM_C19 (antibody, V domains shown)
VH: EVQLLESGGGLVQPGGSLRLSCAASGFTFSSYAMNWVRQAPGKGLEWVSAISDSGGSRWYADSVKGRFTISRDNSKNTLYLQMNSLRAEDTAVYYCARYWPMSDWGQGTLVTVSS
VL: EIVLTQSPGTLSLSPGERATLSCRASQSVSVLYLAWYQQKPGQAPRLLMYDASIRATGIPDRFSGSGSGTDFTLTISRLEPEDFAVYYCQQYLAWPLTFGQGTKVEIK
notes: IgG
In assay [1], B8 displayed a dissociation constant Kd of 0.26 nM, a koff of 0.000661 s⁻¹ and an association rate constant (kon) of 2.54e+06 M⁻¹ s⁻¹. In assay [2], the dissociation constant Kd was found to be 0.049 nM, the koff was 0.000148 s⁻¹ and the kon is 3e+06 M⁻¹ s⁻¹.

B9: A02_Rd4_6nM_C08 (antibody, V domains shown)
VH: EVQLLESGGGLVQPGGSLRLSCAASGFTFSSYAMNWVRQAPGKGLEWVSAILDSGGSTYYADSVKGRFTISRDNSKNTLYLQMNSLRAEDTAVYYCARYWPMSPWGQGTLVTVSS
VL: EIVLTQSPGTLSLSPGERATLSCRASQSVSFLYLAWYQQKPGQAPRLLMYDASIRATGIPDRFSGSGSGTDFTLTISRLEPEDFAVYYCQQYGSWPLTFGQGTKVEIK
notes: IgG
As for B9, in assay [1], binding was put at a Kd of 5.07 nM, the koff was found to be 0.0113 s⁻¹ and the association rate constant (kon) came out at 2.23e+06 M⁻¹ s⁻¹. Besides, in assay [2], the Kd is 0.188 nM, the koff worked out at 0.000738 s⁻¹ and the kon was 3.92e+06 M⁻¹ s⁻¹.

B10: A02_Rd4_6nM_C03 (antibody, V domains shown)
VH: EVQLLESGGGLVQPGGSLRLSCAASGFTFSSYAMNWVRQAPGKGLEWVSAISDSGGSTYYADSVKGRFTISRDNSKNTLYLQMNSLRAEDTAVYYCARYWPMDIWGQGTLVTVSS
VL: EIVLTQSPGTLSLSPGERATLSCRASQSVSNLYLAWYQQKPGQAPRLLMYDASIRATGIPDRFSGSGSGTDFTLTISRLEPEDFAVYYCQQYQGWPLTFGQGTKVEIK
notes: IgG
For B10, in assay [1], binding was characterised by a dissociation constant (Kd) of 0.158 nM, the dissociation rate constant (koff) came to 0.000185 s⁻¹ and the association rate constant (kon) was 1.17e+06 M⁻¹ s⁻¹. In addition, in assay [2], the equilibrium dissociation constant (Kd) was 0.075 nM, the off-rate (koff) is 0.000126 s⁻¹ and the kon came out at 1.69e+06 M⁻¹ s⁻¹.

B11: A02_Rd4_0.6nM_C06 (antibody, V domains shown)
VH: EVQLLESGGGLVQPGGSLRLSCAASGFTFSSYAMNWVRQAPGKGLEWVSAISDSGGSAWYADSVKGRFTISRDNSKNTLYLQMNSLRAEDTAVYYCARYWPMSLWGQGTLVTVSS
VL: EIVLTQSPGTLSLSPGERATLSCRASQSVSVLYLAWYQQKPGQAPRLLMYDASIRATGIPDRFSGSGSGTDFTLTISRLEPEDFAVYYCQQYQRWPLTFGQGTKVEIK
notes: IgG
On to B11, for which, in assay [1], the affinity, expressed as Kd, was 0.058 nM; the koff came to 0.000105 s⁻¹; the kon was determined as 1.81e+06 M⁻¹ s⁻¹. In assay [2], the equilibrium dissociation constant (Kd) is 0.021 nM, the koff turned out to be 7.37e-05 s⁻¹ and the kon came to 3.49e+06 M⁻¹ s⁻¹.

B12: A02_Rd4_6nM_C10 (antibody, V domains shown)
VH: EVQLLESGGGLVQPGGSLRLSCAASGFTFSSYAMNWVRQAPGKGLEWVSAISDSGGSCWYADSVKGRFTISRDNSKNTLYLQMNSLRAEDTAVYYCARYWPMTPWGQGTLVTVSS
VL: EIVLTQSPGTLSLSPGERATLSCRASQSVEMSYLAWYQQKPGQAPRLLMYDASIRATGIPDRFSGSGSGTDFTLTISRLEPEDFAVYYCQQYAHWPLTFGQGTKVEIK
notes: IgG
On to B12, for which, in assay [1], the Kd came out at 0.472 nM, the koff was determined as 0.000898 s⁻¹ and the association rate constant (kon) was 1.9e+06 M⁻¹ s⁻¹. In assay [2], this molecule gave an equilibrium dissociation constant (Kd) of 0.07 nM, a koff of 0.000315 s⁻¹ and an on-rate constant (kon) of 4.51e+06 M⁻¹ s⁻¹.

B13: A02_Rd4_0.6nM_C10 (antibody, V domains shown)
VH: EVQLLESGGGLVQPGGSLRLSCAASGFTFSSYAMNWVRQAPGKGLEWVSAISGWGGSLPYADSVKGRFTISRDNSKNTLYLQMNSLRAEDTAVYYCARYWPMDSWGQGTLVTVSS
VL: EIVLTQSPGTLSLSPGERATLSCRASQSVSAQYLAWYQQKPGQAPRLLMYDASIRATGIPDRFSGSGSGTDFTLTISRLEPEDFAVYYCQQYQRWPLTFGQGTKVEIK
notes: IgG
In assay [1], B13 registered a Kd of 1.84 nM, a koff of 0.00163 s⁻¹ and a kon of 883000 M⁻¹ s⁻¹. In assay [2], this molecule had an equilibrium dissociation constant (Kd) of 0.129 nM, a koff of 0.000296 s⁻¹ and a kon of 2.3e+06 M⁻¹ s⁻¹.

B14: A02_Rd4_6nM_C05 (antibody, V domains shown)
VH: EVQLLESGGGLVQPGGSLRLSCAASGFTFSSYAMNWVRQAPGKGLEWVSAIFASGGSTYYADSVKGRFTISRDNSKNTLYLQMNSLRAEDTAVYYCARYWPMTPWGQGTLVTVSS
VL: EIVLTQSPGTLSLSPGERATLSCRASQSVSSSYLAWYQQKPGQAPRLLMYDASIRATGIPDRFSGSGSGTDFTLTISRLEPEDFAVYYCQQYQRWPLTFGQGTKVEIK
notes: IgG
In assay [1], B14 gave a Kd of 0.95 nM, a dissociation rate constant (koff) of 0.00129 s⁻¹ and an association rate constant (kon) of 1.36e+06 M⁻¹ s⁻¹. In assay [2], the Kd was determined as 0.099 nM, the koff was determined as 0.000308 s⁻¹ and the kon came to 3.1e+06 M⁻¹ s⁻¹.

B15: A02_Rd4_6nM_C04 (antibody, V domains shown)
VH: EVQLLESGGGLVQPGGSLRLSCAASGFTFSSYAMNWVRQAPGKGLEWVSAIMSSGGPLYYADSVKGRFTISRDNSKNTLYLQMNSLRAEDTAVYYCARYWPMALWGQGTLVTVSS
VL: EIVLTQSPGTLSLSPGERATLSCRASQSVSALYLAWYQQKPGQAPRLLMYDASIRATGIPDRFSGSGSGTDFTLTISRLEPEDFAVYYCQQYQVWPLTFGQGTKVEIK
notes: IgG
In the case of B15, in assay [1], binding was put at a Kd of 0.381 nM, the off-rate (koff) is 0.000831 s⁻¹ and the on-rate (kon) stood at 2.18e+06 M⁻¹ s⁻¹. In assay [2], this molecule returned a Kd of 0.135 nM, a dissociation rate constant (koff) of 0.000603 s⁻¹ and an association rate constant (kon) of 4.47e+06 M⁻¹ s⁻¹.
